pKd: −log10 of the molar value.

The target in assay [1] is GST-YFP-6His-PANT^R20A (Arabidopsis). The assay can be described thus: MST.
For assay [2], the target named is GST-YFP-6His-PANT^WT (PANT domain of Arabidopsis SRFR1) (Arabidopsis). The assay can be described thus: MST.

Broadly, the pKd is −log10 of the Kd, conventionally taken in molar units. A low value points to a high Kd. Turning to “synthetic P1 peptide (P1 segment of IDR1 of SRFR1)”, the pKd in assay [1] is 3.02; in assay [2], 3.40.

The record behind these values is article doi:10.1101/2024.04.02.587845.
